In paper PMC7226468, “Insight into the RssB-Mediated Recognition and Delivery of σ^s to the AAA+ Protease, ClpXP” (Biomolecules, 2020):
Each block holds one binder with its values, some of them ahead of it.

How the values were obtained:
[1] = biological target: the molecule itself; assay: cross-linking; 0.005% (v/v) glutaraldehyde, 35 μg of each protein, 20 mM Hepes-KOH pH 7.5, 140 mM NaCl, 10 mM MgCl2, time course; SDS-PAGE and immunodecoration (anti-His, anti-RssB or anti-σS antisera)
[2] = biological target: T1, RssB (residues 1–337), untagged (E. coli, UniProt P0AEV1 1-337); assay: cell-based or functional assay
T1 sequence (looked up): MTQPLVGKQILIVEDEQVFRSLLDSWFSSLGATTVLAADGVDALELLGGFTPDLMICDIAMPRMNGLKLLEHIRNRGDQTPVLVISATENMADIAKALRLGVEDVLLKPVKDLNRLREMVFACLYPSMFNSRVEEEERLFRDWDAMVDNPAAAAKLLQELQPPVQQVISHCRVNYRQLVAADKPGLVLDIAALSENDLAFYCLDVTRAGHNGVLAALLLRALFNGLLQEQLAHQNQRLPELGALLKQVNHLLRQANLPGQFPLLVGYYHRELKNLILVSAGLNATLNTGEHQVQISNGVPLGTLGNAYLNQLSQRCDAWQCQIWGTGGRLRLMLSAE

B1: RssBC (residues 131–337), untagged (domain or fragment, E. coli, UniProt P0AEV1 131-337, looked up)
chain: SRVEEEERLFRDWDAMVDNPAAAAKLLQELQPPVQQVISHCRVNYRQLVAADKPGLVLDIAALSENDLAFYCLDVTRAGHNGVLAALLLRALFNGLLQEQLAHQNQRLPELGALLKQVNHLLRQANLPGQFPLLVGYYHRELKNLILVSAGLNATLNTGEHQVQISNGVPLGTLGNAYLNQLSQRCDAWQCQIWGTGGRLRLMLSAE
notes: RssB, E. coli, C-terminal effector domain, residues 131-337; also called C-terminal domain of RssB; effector domain; source: Ub-fusion system, purified (IMAC, SEC)
stoichiometry N [1]: 2

B2: RssBN (residues 1–128), untagged (domain or fragment, E. coli, UniProt P0AEV1 1-128, looked up)
chain: MTQPLVGKQILIVEDEQVFRSLLDSWFSSLGATTVLAADGVDALELLGGFTPDLMICDIAMPRMNGLKLLEHIRNRGDQTPVLVISATENMADIAKALRLGVEDVLLKPVKDLNRLREMVFACLYPSM
notes: RssB, E. coli, N-terminal receiver domain, residues 1-128; also called N-terminal domain of RssB; REC domain; source: Ub-fusion system, purified (IMAC, SEC)
stoichiometry N [1]: 2

half-life of σS in RssB-mediated turnover by 1.2 µM ClpXP with 2, 5 and 15 µM SspB added (from ~2.5 min without SspB) [2]: ~23 min
B3: His6-tagged zinc binding domain (ZBD) of E. coli ClpX (domain or fragment, UniProt P0A6H1 1-60, looked up)
chain: MTDKRKDGSGKLLYCSFCGKSQHEVRKLIAGPSVYICDECVDLCNDIIREEIKEVAPHRE
notes: Dimer by glutaraldehyde cross-linking; also called ClpXZBD; ecClpXZBD; source: purified ("Pure ecClpXZBD")
stoichiometry N [1]: 2
